The values below come from article PMC4683182, “Global Regulator IscR Positively Contributes to Antimonite Resistance and Oxidation in Comamonas testosteroni S44”.

The target in the data set is T1, IscR (His-tagged) (Comamonas testosteroni S44, UniProt A0A0L7MDB4 1-178).
T1 sequence: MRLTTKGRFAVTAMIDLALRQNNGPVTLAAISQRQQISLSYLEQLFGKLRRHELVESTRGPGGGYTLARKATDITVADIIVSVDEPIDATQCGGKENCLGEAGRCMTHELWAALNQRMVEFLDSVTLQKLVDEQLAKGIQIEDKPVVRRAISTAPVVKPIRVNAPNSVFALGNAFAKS
As to the kind of experiment: EMSA; 100 mM HEPES pH 7.6, 5 mM EDTA, 50 mM (NH4)2SO4, 5 mM DTT, 1% (w/v) Tween 20, 150 mM KCl; 30 min at 30 C; 20 uL; 6% native PAGE, ethidium bromide. The note with it: protein: recombinant; tags: His-tag (pET-28a(+)); chain copies: 2.

B1: Site B 30-bp (dsDNA)
DNA 1: GATATACTCGCCTCAAACACTCAACAACAA
DNA 2: TTGTTGTTGAGTGTTTGAGGCGAGTATATC
With B1, the binding result is on record as “binds”.

B2: Site A* 30-bp (dsDNA)
DNA 1: CTGTTACCCGACAAAGCTGGCGGGGAATGT
DNA 2: ACATTCCCCGCCAGCTTTGTCGGGTAACAG
On to B2, for which the binding result is “no binding”.

B3: Site B* 30-bp (dsDNA)
DNA 1: GATGCGCTCGCCTCAAACACTCAACAACAA
DNA 2: TTGTTGTTGAGTGTTTGAGGCGAGCGCATC
With B3, the binding result was “no binding”.

B4: Site A 30-bp (dsDNA)
DNA 1: CTGTTACCCGACAAAATTGATGGGGAATGT
DNA 2: ACATTCCCCATCAATTTTGTCGGGTAACAG
In the case of B4, the binding result is recorded as “binds”.
